In assay [1] the target is T1, hCTLA4_ECD.His point mutant G64 to alanine (human, UniProt P16410 36-161).
T1 construct: extracellular domain; alanine-scan mutein, HEK293F supernatant
T1 sequence (looked up): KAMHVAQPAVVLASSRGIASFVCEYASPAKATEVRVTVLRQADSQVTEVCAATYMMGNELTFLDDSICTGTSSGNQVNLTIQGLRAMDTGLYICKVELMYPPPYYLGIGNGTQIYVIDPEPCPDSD
Kind of assay: capture ELISA, alanine scan, vs silent alanine substitutions. The gist of the method: (§1)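 Secreted His-tagged CTLA4 point muteins in quantified supernatant were captured and probed with HRP anti-His antibody and TMB. Absorbance normalised to the mean of control mutants; epitope residues were assigned with a binding fold-change cutoff of <0.55.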

Assay [2] deals with T2, hCTLA4_ECD.His point mutant K65 to alanine (human, UniProt P16410 36-161).
T2 construct: extracellular domain; alanine-scan mutein, HEK293F supernatant
T2 sequence (looked up): T1 sequence (looked up) with A29G, K30A
The description is as above. The gist of the method:
as §1

A further assay concerns the target T3, Murine CTLA-4.ECD-6×His (mouse, UniProt P09793 36-161).
T3 construct: extracellular domain; Bought; also called mouse CTLA-4.ECD-6×His; mouse CTLA-4 ECD
The assay can be described thus: ELISA, antibody titrated on coated mouse CTLA-4.ECD-6xHis, OD450 [C) Murine CTLA-4]. How it is done: ELISA was used to test binding of anti-human CTLA-4 antibodies to human, murine and cynomolgus monkey CTLA-4 protein. A 96-well plate was coated with human CTLA-4.ECD-6×His (1.0 μg/mL), cynomoguls monkey CTLA-4.ECD-6×His (0.5 μg/mL) or mouse CTLA-4.ECD-6×His (0.5 μg/mL) at 4° C. for 16-20 hours. After 1 hour blocking with 2% BSA in DBPS, testing antibodies, as well as positive and negative control antibodies were added to the plates and incubated at room temperature for 1 hour. The binding of the antibodies to the plates were detected by HRP-conjugated goat anti-human IgG antibody (1:5000 dilution) with 1 hour incubation. The color was developed by dispensing 100 μL of TMB substrate for 8 mins, and then stopped by 100 μL of 2N HCl.
(In general: In an ELISA, binding on a coated surface is turned into a signal by an enzyme label.)

The target of a further assay is T4, human CTLA-4.ECD-6×His (human, UniProt P16410 36-161).
T4 construct: extracellular domain; also called WBP316.hCTLA-4.ECD-6×His; hCTLA4-His (WT)
T4 sequence: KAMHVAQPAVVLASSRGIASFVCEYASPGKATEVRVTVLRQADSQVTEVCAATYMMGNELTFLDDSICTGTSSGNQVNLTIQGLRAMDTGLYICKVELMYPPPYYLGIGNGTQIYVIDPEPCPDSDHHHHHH
Kind of assay: capture ELISA: W3162-1.154.8-z35 captured on anti-human Fc, hCTLA4-His supernatant titrated (ng/ml), HRP-anti-His [C].

The next assay has as its target T5, hCTLA4_ECD.His (N113 Q) (human, UniProt P16410 36-161).
T5 construct: extracellular domain; Glycosylation-site mutein, expressed in HEK293F cells; also called CTLA-4 with N113Q
T5 sequence (looked up): T1 sequence (looked up) with A29G, N78Q
Kind of assay: capture ELISA: W3162-1.154.8-z35 captured on anti-human Fc, hCTLA4-His mutein supernatant titrated (ng/ml), HRP-anti-His [C].

The next assay addresses T6, hCTLA4_ECD.His (N145Q) (human, UniProt P16410 36-161).
T6 construct: extracellular domain; Glycosylation-site mutein, expressed in HEK293F cells; also called CTLA-4 N145Q
T6 sequence (looked up): T1 sequence (looked up) with A29G, N110Q
The assay is described as above.

In assay [3] the target is T7, hCTLA4_ECD.His point mutant L126 to alanine (human, UniProt P16410 36-161).
T7 construct: extracellular domain; alanine-scan mutein, HEK293F supernatant
T7 sequence (looked up): T1 sequence (looked up) with A29G, L91A
The assay can be described thus: capture ELISA, alanine scan, vs silent alanine substitutions. The essentials: as §1

Assay [4] deals with T8, hCTLA4_ECD.His point mutant E132 to alanine (human, UniProt P16410 36-161).
T8 construct: extracellular domain; alanine-scan mutein, HEK293F supernatant
T8 sequence (looked up): T1 sequence (looked up) with A29G, E97A
Described as above. The essentials:
as §1

Assay [5] addresses T9, hCTLA4_ECD.His point mutant L141 to alanine (human, UniProt P16410 36-161).
T9 construct: extracellular domain; alanine-scan mutein, HEK293F supernatant
T9 sequence (looked up): T1 sequence (looked up) with A29G, L106A
Described as above. The gist of the method:
as §1

In assay [6] the target is T10, hCTLA4_ECD.His point mutant N145 to alanine (human, UniProt P16410 36-161).
T10 construct: extracellular domain; alanine-scan mutein, HEK293F supernatant
T10 sequence (looked up): T1 sequence (looked up) with A29G, N110A
The assay is described as above. The essentials:
as §1

Substitutions are numbered along the chain they refer to.

B1: W3162_1.154.8-z35-uAb.IgG1K (antibody, V domains shown)
VH: QVQLVQSGAEVKKPGSSVKVSCKASGYTFTNYFMNWVRQAPGQGLEWMGRVDPEQGRADYAEKFKKRVTITADKSTSTAYMELSSLRSEDTAVYYCARRAMDNYGFAYWGQGTLVTVSS
VL: EIVLTQSPDFQSVTPKEKVTITCSANSALSYMYWYQQKPDQSPKLWVHGTSNLASGVPSRFSGSGSGTDFTLTINSLEAEDAATYYCHHWSNTQWTFGGGTKVEIK
notes: Humanized; label says IgG1K
The term EC50 (read off the curve) denotes the concentration at which the effect is half-maximal. Low values mean higher potency in that assay, high ones lower potency in that assay. Regarding B1, the Fold change in [1] is 0.543 fold; in assay [2], 0.351 fold. Further, the binding result with Murine CTLA-4.ECD-6×His was “no binding (tested: about 7 nM)”. Moreover, the “EC50 (read off the curve)” value with human CTLA-4.ECD-6×His, with hCTLA4_ECD.His (N113 Q) and with hCTLA4_ECD.His (N145Q) was roughly 3 ng/mL in each case.

B2: W3162-1.146.19-z12-uAb.IgG1K (antibody, V domains shown)
VH: QVQLQESGPGLVKPSETLSLTCSVTYHTITSGYDWTWIRKPPGKGMEWIGYISYSGNTNYNPSLKSRVTISRDTSKNQFFLKLSSVTAADTAVYYCASMMVPHYYVMDAWGQGTLVTVSS
VL: DIVMTQTPLSLSVTPGQPASISCRSSQSLLNSDGNTYLYWYLQKPGQSPQLLIYLVSKLGSGVPNRFSGSGSGTDFTLKISRVEAEDVGVYYCVQGTHDPWTFGGGTKVEIK
notes: Humanized; label says IgG1K
For the molecule B2, the Fold change in [3] was determined as 0.398 fold; in assay [4] it was 0.457 fold; in assay [5] it was 0.486 fold; in [6], 0.196 fold.

The values above are taken from patent publication US20200277377A1 (WUXI BIOLOGICS SHANGHAI, published 2020).
